Assay results from US20250136696A1 (HARBOUR BIOMED SHANGHAI, published 2025).

B1: PR004479 (antibody, human IgG1, kappa, L234A L235A, V domains shown)
VH: QVQLVESGGGVVQPGRSLRLSCAASGFTFSDYGIHWVRQAPGKGLEWVAVIWYEGSDKYYADSVRGRFTISRDNSKNTLSLQMNSLRVEDTAVYYCARDRSSGAMGYFVYWGQGTLVTVSS
VL: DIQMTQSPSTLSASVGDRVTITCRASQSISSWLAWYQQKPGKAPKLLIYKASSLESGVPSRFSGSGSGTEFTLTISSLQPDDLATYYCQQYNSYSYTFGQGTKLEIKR
notes: Variant of PR003249, H:D54E; Human IgG1 LALA; expressed supernatant only
B2: PR004482 (antibody, human IgG1, kappa, L234A L235A, V domains shown)
VH: QVQLVESGGGVVQPGRSLRLSCAASGFTFSDYGIHWVRQAPGKGLEWVAVIWYDASDKYYADSVRGRFTISRDNSKNTLSLQMNSLRVEDTAVYYCARDRSSGAMGYFVYWGQGTLVTVSS
VL: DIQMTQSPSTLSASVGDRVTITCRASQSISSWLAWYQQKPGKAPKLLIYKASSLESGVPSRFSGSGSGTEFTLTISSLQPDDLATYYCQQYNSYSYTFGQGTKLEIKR
notes: Variant of PR003249, H:G55A; Human IgG1 LALA; expressed supernatant only
B3: PR004481 (antibody, human IgG1, kappa, L234A L235A, V domains shown)
VH: QVQLVESGGGVVQPGRSLRLSCAASGFTFSDYGIHWVRQAPGKGLEWVAVIWYEGSDKYYADSVRGRFTISRDNSKNTLSLQMNSLRVEDTAVYYCARDRSSGAMGYFVYWGQGTLVTVSS
VL: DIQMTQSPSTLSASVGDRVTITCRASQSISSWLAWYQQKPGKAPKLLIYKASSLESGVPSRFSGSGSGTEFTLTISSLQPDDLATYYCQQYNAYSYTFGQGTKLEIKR
notes: Variant of PR003249, H:D54E; L:S93A; Human IgG1 LALA; expressed supernatant only
B4: PR004480 (antibody, human IgG1, kappa, L234A L235A, V domains shown)
VH: QVQLVESGGGVVQPGRSLRLSCAASGFTFSDYGIHWVRQAPGKGLEWVAVIWYEGSDKYYADSVRGRFTISRDNSKNTLSLQMNSLRVEDTAVYYCARDRSSGAMGYFVYWGQGTLVTVSS
VL: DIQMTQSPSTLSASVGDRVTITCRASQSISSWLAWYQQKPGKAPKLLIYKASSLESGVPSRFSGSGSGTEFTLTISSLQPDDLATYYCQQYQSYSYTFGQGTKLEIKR
notes: Variant of PR003249, H:D54E; L:N92Q; Human IgG1 LALA; expressed supernatant only
B5: PR004486 (antibody, human IgG1, kappa, L234A L235A, V domains shown)
VH: QVQLVESGGGVVQPGRSLRLSCAASGFTFSDYGIHWVRQAPGKGLEWVAVIWYDGSDKYYADSVRGRFTISRDNSKNTLSLQMNSLRVEDTAVYYCARDRSSGAMGYFVYWGQGTLVTVSS
VL: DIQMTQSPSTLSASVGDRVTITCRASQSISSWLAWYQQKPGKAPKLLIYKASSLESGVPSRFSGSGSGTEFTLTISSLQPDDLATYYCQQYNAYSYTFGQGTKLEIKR
notes: Variant of PR003249, L:S93A; Human IgG1 LALA; expressed supernatant only
B6: PR004485 (antibody, human IgG1, kappa, L234A L235A, V domains shown)
VH: QVQLVESGGGVVQPGRSLRLSCAASGFTFSDYGIHWVRQAPGKGLEWVAVIWYDGSDKYYADSVRGRFTISRDNSKNTLSLQMNSLRVEDTAVYYCARDRSSGAMGYFVYWGQGTLVTVSS
VL: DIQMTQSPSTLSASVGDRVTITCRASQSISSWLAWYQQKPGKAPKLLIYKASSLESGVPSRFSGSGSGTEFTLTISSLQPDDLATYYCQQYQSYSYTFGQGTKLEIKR
notes: Variant of PR003249, L:N92Q; Human IgG1 LALA; expressed supernatant only
B7: PR004487 (antibody, human IgG1, kappa, L234A L235A, V domains shown)
VH: QVQLVESGGGVVQPGRSLRLSCAASGFTFSNYGMHWVRQVPGKGLEWVAVIWYEGSEKDYADSVKGRFTISRDNSKNTLYLQMNSLRVEDTAVYYCAKDLISGIYYVDHWGQGTLVTVSS
VL: DIQMTQSPSSLSASVGDRVTITCRASQGISNYLAWYQQKPGKVPKLLIYAASTLQSGVPSRFSGSGSGTDFTLTISSLQPEDVATYYCQKYNSAPFTFGPGTKVDIKR
notes: Variant of PR003259, H:D54E; Human IgG1 LALA; expressed supernatant only
B8: PR004488 (antibody, human IgG1, kappa, L234A L235A, V domains shown)
VH: QVQLVESGGGVVQPGRSLRLSCAASGFTFSNYGMHWVRQVPGKGLEWVAVIWYEGSEKDYADSVKGRFTISRDNSKNTLYLQMNSLRVEDTAVYYCAKDLISGIYYVDHWGQGTLVTVSS
VL: DIQMTQSPSSLSASVGDRVTITCRASQGISNYLAWYQQKPGKVPKLLIYAASTLQSGVPSRFSGSGSGTDFTLTISSLQPEDVATYYCQKYQSAPFTFGPGTKVDIKR
notes: Variant of PR003259, H:D54E; L:N92Q; Human IgG1 LALA; expressed supernatant only
B9: PR004494 (antibody, human IgG1, kappa, L234A L235A, V domains shown)
VH: QVQLVESGGGVVQPGRSLRLSCAASGFTFSNYGMHWVRQVPGKGLEWVAVIWYDGSEKDYADSVKGRFTISRDNSKNTLYLQMNSLRVEDTAVYYCAKDLISGIYYVDHWGQGTLVTVSS
VL: DIQMTQSPSSLSASVGDRVTITCRASQGISNYLAWYQQKPGKVPKLLIYAASTLQSGVPSRFSGSGSGTDFTLTISSLQPEDVATYYCQKYNAAPFTFGPGTKVDIKR
notes: Variant of PR003259, L:S93A; Human IgG1 LALA; expressed supernatant only
B10: PR004489 (antibody, human IgG1, kappa, L234A L235A, V domains shown)
VH: QVQLVESGGGVVQPGRSLRLSCAASGFTFSNYGMHWVRQVPGKGLEWVAVIWYEGSEKDYADSVKGRFTISRDNSKNTLYLQMNSLRVEDTAVYYCAKDLISGIYYVDHWGQGTLVTVSS
VL: DIQMTQSPSSLSASVGDRVTITCRASQGISNYLAWYQQKPGKVPKLLIYAASTLQSGVPSRFSGSGSGTDFTLTISSLQPEDVATYYCQKYNAAPFTFGPGTKVDIKR
notes: Variant of PR003259, H:D54E; L:S93A; Human IgG1 LALA; expressed supernatant only
B11: PR004493 (antibody, human IgG1, kappa, L234A L235A, V domains shown)
VH: QVQLVESGGGVVQPGRSLRLSCAASGFTFSNYGMHWVRQVPGKGLEWVAVIWYDGSEKDYADSVKGRFTISRDNSKNTLYLQMNSLRVEDTAVYYCAKDLISGIYYVDHWGQGTLVTVSS
VL: DIQMTQSPSSLSASVGDRVTITCRASQGISNYLAWYQQKPGKVPKLLIYAASTLQSGVPSRFSGSGSGTDFTLTISSLQPEDVATYYCQKYQSAPFTFGPGTKVDIKR
notes: Variant of PR003259, L:N92Q; Human IgG1 LALA; expressed supernatant only
B12: PR004490 (antibody, human IgG1, kappa, L234A L235A, V domains shown)
VH: QVQLVESGGGVVQPGRSLRLSCAASGFTFSNYGMHWVRQVPGKGLEWVAVIWYDASEKDYADSVKGRFTISRDNSKNTLYLQMNSLRVEDTAVYYCAKDLISGIYYVDHWGQGTLVTVSS
VL: DIQMTQSPSSLSASVGDRVTITCRASQGISNYLAWYQQKPGKVPKLLIYAASTLQSGVPSRFSGSGSGTDFTLTISSLQPEDVATYYCQKYNSAPFTFGPGTKVDIKR
notes: Variant of PR003259, H:G55A; Human IgG1 LALA; expressed supernatant only
B13: PR004483 (antibody, human IgG1, kappa, L234A L235A, V domains shown)
VH: QVQLVESGGGVVQPGRSLRLSCAASGFTFSDYGIHWVRQAPGKGLEWVAVIWYDASDKYYADSVRGRFTISRDNSKNTLSLQMNSLRVEDTAVYYCARDRSSGAMGYFVYWGQGTLVTVSS
VL: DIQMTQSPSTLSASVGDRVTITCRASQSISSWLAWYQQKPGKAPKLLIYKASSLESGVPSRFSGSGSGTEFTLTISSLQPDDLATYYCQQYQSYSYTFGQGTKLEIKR
notes: Variant of PR003249, H:G55A; L:N92Q; Human IgG1 LALA
B14: PR004484 (antibody, human IgG1, kappa, L234A L235A, V domains shown)
VH: QVQLVESGGGVVQPGRSLRLSCAASGFTFSDYGIHWVRQAPGKGLEWVAVIWYDASDKYYADSVRGRFTISRDNSKNTLSLQMNSLRVEDTAVYYCARDRSSGAMGYFVYWGQGTLVTVSS
VL: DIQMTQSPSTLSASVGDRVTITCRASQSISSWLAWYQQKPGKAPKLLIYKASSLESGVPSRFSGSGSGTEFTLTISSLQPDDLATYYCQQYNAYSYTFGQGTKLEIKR
notes: Variant of PR003249, H:G55A; L:S93A; Human IgG1 LALA
B15: PR004492 (antibody, human IgG1, kappa, L234A L235A, V domains shown)
VH: QVQLVESGGGVVQPGRSLRLSCAASGFTFSNYGMHWVRQVPGKGLEWVAVIWYDASEKDYADSVKGRFTISRDNSKNTLYLQMNSLRVEDTAVYYCAKDLISGIYYVDHWGQGTLVTVSS
VL: DIQMTQSPSSLSASVGDRVTITCRASQGISNYLAWYQQKPGKVPKLLIYAASTLQSGVPSRFSGSGSGTDFTLTISSLQPEDVATYYCQKYNAAPFTFGPGTKVDIKR
notes: Variant of PR003259, H:G55A; L:S93A; Human IgG1 LALA
B16: PR004491 (antibody, human IgG1, kappa, L234A L235A, V domains shown)
VH: QVQLVESGGGVVQPGRSLRLSCAASGFTFSNYGMHWVRQVPGKGLEWVAVIWYDASEKDYADSVKGRFTISRDNSKNTLYLQMNSLRVEDTAVYYCAKDLISGIYYVDHWGQGTLVTVSS
VL: DIQMTQSPSSLSASVGDRVTITCRASQGISNYLAWYQQKPGKVPKLLIYAASTLQSGVPSRFSGSGSGTDFTLTISSLQPEDVATYYCQKYQSAPFTFGPGTKVDIKR
notes: Variant of PR003259, H:G55A; L:N92Q; Human IgG1 LALA

These binders were tested against T1, human B7-H7 on the cell surface (human, UniProt Q9UM44 23-414) (assay: flow cytometry on LS180 cells, expression supernatant diluted 1:1, 1:10, 1:100).
T1 construct: whole, on cells; also called hB7-H7; hu B7-H7
T1 sequence (looked up): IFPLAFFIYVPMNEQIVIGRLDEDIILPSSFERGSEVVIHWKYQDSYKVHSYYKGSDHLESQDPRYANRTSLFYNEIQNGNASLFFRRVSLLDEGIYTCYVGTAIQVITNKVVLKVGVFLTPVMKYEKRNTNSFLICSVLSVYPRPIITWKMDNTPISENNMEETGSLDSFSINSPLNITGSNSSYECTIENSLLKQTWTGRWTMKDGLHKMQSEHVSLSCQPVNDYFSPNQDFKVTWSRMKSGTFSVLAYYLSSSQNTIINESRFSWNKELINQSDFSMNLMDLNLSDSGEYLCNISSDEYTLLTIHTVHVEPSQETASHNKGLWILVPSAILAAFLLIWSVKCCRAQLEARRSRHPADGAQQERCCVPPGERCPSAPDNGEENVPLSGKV
B1: binds. B2: binds. B3: binds. B4: binds. B5: binds. B6: binds. B7: binds. B8: binds. B9: binds. B10: binds. B11: binds. B12: binds.

The binders below were run against T1, human B7-H7 on the cell surface (assay: flow cytometry, LS180 cells).
Method: This example was intended to study the in vitro activity of H2L2 monoclonal antibodies against human B7-H7 in binding to human/cynomolgus monkey B7-H7. Since homologous molecules of B7-H7 were not present in mice, the detection was not performed. […] The cells were adjusted to a cell density of 1×10⁶ cells/mL, respectively. The cells were seeded in a 96-well V-bottom plate (Corning, #3894) at 100 μL/well, and the antibody to be tested at 2× final concentration with 3-fold concentration gradient dilution was then added at 100 μL/well. The cells were incubated at 4° C. for 2 hours in the dark. After the incubation, the cells were rinsed twice by adding pre-chilled PBS containing 2% BSA at 100 μl/well, and centrifuged at 500 g at 4° C. for 5 minutes, and the supernatant was discarded. […] The cells were washed twice by adding pre-chilled PBS containing 2% BSA at 100 μL/well, and centrifuged at 500 g at 4° C. for 5 minutes, and the supernatant was discarded. Finally, the cells were resuspended in pre-chilled PBS containing 2% BSA at 200 μL/well, and the fluorescence signal values were read using an ACEA Novocyte3000 flow cytometer.
B13 was tested, and the EC50 was 44 pM and the “Maximum MFI” value was 25100 MFI. For B14, the EC50 was 40 pM and the “Maximum MFI” value was 24600 MFI. B15 was tested, and the EC50 was 52 pM and the “Maximum MFI” value was 22900 MFI. For B16, the EC50 was 66 pM and the “Maximum MFI” value was 22800 MFI.
